Results taken from patent US20220332804A1 (CSL INNOVATION, published 2022).

What was measured:
Assay in all cases: SPR, antibody captured, C2 as analyte;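 further: biacore SPR at 37 °C, anti-C2 mAbs captured via goat anti-human IgG on CM5 chips, double-referenced sensorgrams fit to a 1:1 kinetic or steady-state model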
human C2 P704A = molecular target: T1, human C2 P704A (human, UniProt P06681 21-752)
T1 sequence: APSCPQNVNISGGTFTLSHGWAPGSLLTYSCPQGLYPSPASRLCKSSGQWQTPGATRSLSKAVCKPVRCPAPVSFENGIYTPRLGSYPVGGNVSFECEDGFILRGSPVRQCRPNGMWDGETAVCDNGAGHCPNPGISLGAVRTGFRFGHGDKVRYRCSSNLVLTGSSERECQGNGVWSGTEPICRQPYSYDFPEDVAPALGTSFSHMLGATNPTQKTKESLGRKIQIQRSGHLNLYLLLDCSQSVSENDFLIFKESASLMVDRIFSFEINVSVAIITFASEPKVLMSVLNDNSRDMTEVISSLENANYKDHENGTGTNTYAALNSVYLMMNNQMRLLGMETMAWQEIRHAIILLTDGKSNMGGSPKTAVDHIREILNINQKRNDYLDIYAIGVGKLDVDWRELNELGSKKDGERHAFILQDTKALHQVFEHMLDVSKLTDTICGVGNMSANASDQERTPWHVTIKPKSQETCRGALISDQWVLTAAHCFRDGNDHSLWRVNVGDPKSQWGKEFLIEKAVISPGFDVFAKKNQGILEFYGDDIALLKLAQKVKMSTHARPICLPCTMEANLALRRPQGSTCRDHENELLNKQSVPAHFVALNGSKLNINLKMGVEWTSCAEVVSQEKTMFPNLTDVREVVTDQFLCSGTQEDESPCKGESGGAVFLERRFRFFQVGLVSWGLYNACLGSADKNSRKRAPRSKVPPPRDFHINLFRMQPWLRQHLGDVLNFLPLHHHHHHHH

human C2 H331A = molecular target: T2, human C2 H331A (human, UniProt P06681 21-752)
T2 sequence: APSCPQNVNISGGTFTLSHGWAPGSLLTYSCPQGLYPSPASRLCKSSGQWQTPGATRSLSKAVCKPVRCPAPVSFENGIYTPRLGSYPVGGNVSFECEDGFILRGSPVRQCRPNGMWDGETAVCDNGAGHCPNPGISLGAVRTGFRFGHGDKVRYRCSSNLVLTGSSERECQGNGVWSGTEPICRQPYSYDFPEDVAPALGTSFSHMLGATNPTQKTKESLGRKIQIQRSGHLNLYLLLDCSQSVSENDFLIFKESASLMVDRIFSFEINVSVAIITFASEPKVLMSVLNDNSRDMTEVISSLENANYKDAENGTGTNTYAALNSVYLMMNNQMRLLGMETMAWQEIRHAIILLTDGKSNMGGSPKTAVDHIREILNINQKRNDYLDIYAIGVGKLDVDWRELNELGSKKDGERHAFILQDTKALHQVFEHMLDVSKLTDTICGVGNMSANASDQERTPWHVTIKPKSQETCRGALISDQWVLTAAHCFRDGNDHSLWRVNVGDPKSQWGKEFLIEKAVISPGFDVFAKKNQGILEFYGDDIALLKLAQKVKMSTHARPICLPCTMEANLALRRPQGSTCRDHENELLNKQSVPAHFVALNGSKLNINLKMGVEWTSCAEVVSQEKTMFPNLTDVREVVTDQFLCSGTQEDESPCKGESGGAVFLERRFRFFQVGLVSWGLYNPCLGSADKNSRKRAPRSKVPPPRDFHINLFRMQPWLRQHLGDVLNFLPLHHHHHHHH

human C2 E267A = molecular target: T3, human C2 E267A (human, UniProt P06681 21-752)
T3 sequence: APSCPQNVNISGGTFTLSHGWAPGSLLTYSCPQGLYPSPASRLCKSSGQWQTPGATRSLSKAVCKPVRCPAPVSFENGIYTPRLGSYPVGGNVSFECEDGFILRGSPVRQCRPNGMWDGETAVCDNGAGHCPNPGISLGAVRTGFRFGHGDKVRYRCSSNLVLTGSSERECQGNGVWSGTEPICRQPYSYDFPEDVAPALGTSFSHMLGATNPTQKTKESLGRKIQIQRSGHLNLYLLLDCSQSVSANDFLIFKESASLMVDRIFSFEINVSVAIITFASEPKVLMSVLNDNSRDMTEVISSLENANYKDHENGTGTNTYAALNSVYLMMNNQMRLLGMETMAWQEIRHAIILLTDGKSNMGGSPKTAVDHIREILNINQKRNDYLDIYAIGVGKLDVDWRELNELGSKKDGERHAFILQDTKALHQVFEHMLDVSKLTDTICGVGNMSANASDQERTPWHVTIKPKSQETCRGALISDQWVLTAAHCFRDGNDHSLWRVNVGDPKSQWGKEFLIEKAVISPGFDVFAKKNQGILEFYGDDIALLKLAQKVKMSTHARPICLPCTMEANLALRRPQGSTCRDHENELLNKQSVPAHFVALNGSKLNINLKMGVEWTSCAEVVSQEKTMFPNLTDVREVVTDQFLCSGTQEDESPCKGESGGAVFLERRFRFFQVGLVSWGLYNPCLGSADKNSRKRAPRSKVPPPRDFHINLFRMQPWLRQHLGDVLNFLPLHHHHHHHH

human C2 D419A = molecular target: T4, human C2 D419A (human, UniProt P06681 21-752)
T4 sequence: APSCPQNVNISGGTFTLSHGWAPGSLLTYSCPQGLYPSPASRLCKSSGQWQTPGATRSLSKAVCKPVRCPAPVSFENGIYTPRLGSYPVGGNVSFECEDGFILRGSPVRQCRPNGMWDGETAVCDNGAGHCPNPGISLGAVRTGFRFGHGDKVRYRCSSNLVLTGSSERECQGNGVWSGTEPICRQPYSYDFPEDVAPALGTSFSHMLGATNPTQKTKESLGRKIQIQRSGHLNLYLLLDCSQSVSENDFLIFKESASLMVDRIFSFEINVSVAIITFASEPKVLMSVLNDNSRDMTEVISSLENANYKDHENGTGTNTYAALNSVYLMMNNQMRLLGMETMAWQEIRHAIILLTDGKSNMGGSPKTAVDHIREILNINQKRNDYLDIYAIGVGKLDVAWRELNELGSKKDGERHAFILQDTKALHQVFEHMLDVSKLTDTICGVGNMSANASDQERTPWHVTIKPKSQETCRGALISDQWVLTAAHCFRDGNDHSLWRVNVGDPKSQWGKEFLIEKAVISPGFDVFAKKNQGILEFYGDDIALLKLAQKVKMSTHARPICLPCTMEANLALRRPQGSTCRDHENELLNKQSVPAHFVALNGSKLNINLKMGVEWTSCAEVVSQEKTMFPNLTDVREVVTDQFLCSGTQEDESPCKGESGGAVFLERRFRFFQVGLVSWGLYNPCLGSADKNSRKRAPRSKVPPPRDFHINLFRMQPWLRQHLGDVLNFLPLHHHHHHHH

B1: RF16-226 (antibody, human IgG4 S228P, lambda)
heavy: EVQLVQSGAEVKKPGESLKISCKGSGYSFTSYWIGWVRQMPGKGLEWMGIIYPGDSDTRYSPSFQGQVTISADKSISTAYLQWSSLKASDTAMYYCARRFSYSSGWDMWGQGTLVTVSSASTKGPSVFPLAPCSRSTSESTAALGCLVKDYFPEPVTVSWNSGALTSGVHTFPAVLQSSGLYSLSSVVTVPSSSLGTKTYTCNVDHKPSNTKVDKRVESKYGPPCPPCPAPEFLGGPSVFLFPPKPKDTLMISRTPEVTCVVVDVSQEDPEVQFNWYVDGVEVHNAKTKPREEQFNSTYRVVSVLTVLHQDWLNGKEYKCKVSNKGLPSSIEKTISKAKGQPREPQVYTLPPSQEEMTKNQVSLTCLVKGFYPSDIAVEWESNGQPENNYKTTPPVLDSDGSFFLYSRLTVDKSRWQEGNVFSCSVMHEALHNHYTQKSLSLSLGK
light: SYELTQPPSVSVSPGQTARITCSGDALTSKYVAWYQQKSGLAPLLVIYEDTRRPSGIPAKFSGSSSGSVATLTISGAHGDDEADYYCYSTDASGHQRVFGGGTKLTVLSQPKAAPSVTLFPPSSEELQANKATLVCLISDFYPGAVTVAWKADGSPVKAGVETTKPSKQSNNKYAASSYLSLTPEQWKSHRSYSCQVTHEGSTVEKTVAPTECS
notes: pH-dependent anti-C2 antibody from a phage display library; also called WT
Kd (human C2 P704A): 120 nM
binding result (human C2 H331A): no binding
Kd (human C2 E267A): 11.2 nM
Kd (human C2 D419A): 17.6 nM
